What follows are binders tested against SARS-CoV-2 RBD construct consisting of residues Pro330-Gly526 fused to Venus YFP (RBD-vYFP) (SARS-CoV-2, UniProt P0DTC2).

| Binder | binding result |
| --- | --- |
| Sb#66 (VHH) VHH: QVQLVESGGGSVQAGGSLRLSCAASGSIQAITYLGWFRQAPGKEREGVAALVTWNGQTYYADSVKGRFTVSLDNAKNTVYLQMNSLKPEDTALYYCAAADWGYDWPLWDEWYWYWGQGTQVTVS | binds |
| Sb#69 (VHH) VHH: QVQLVESGGGSVQAGGSLRLSCAASGSISSITYLGWFRQAPGKEREGVAALNTFNGTTYYADSVKGRFTVSLDNAKNTVYLQMNSLKPEDTALYYCAAATWGYSWPLIAEYNWYWGQGTQVTVS | binds |
| Sb#71 (VHH) VHH: QVQLVESGGGSVQAGGSLRLSCAASGSISSITYLGWFRQAPGKEREGVAALKTQAGFTYYADSVKGRFTVSLDNAKNTVYLQMNSLKPEDTALYYCAAANWGYSWPLYEADDWYWGQGTQVTVS | binds |
| Sb#64 (VHH) VHH: QVQLVESGGGSVQAGGSLRLSCAASGEIESIFYLGWFRQAPGKEREGVAALYTYVGQTYYADSVKGRFTVSLDNAKNTVYLQMNSLKPEDTALYYCAAASYGAAHPLSIMRYYYWGQGTQVTVS | binds |
| Sb#59 (VHH) VHH: QVQLVESGGGSVQAGGSLRLSCAASGNIESIYYLGWFRQAPGKEREGVAALWTGDGETYYADSVKGRFTVSLDNAKNTVYLQMNSLKPEDTALYYCAAAAWGNSAPLTTYRYYYWGQGTQVTVS | binds |
| Sb#52 (VHH) VHH: QVQLVESGGGSVQAGGSLRLSCAASGNIQRIYYLGWFRQAPGKEREGVAALMTYTGHTYYADSVKGRFTVSLDNAKNTVYLQMNSLKPEDTALYYCAAAYVGAENPLPYSMYGYWGQGTQVTVS | binds |
| Sb#62 (VHH) VHH: QVQLVESGGGSVQAGGSLRLSCAASGTIADIKYLGWFRQAPGKEREGVAALMTRWGSTYYADSVKGRFTVSLDNAKNTVYLQMNSLKPEDTALYYCAAANYGANYPLYSQQYSYWGQGTQVTVS | binds |
| Sb#63 (VHH) VHH: QVQLVESGGGSVQAGGSLRLSCAASGSISSIKYLGWFRQAPGKEREGVAALMTRWGMTYYADSVKGRFTVSLDNAKNTVYLQMNSLKPEDTALYYCAAANYGANEPLQYTHYNYWGQGTQVTVS | binds |
| Sb#65 (VHH) VHH: QVQLVESGGGSVQAGGSLRLSCAASGTIAHIKYLGWFRQAPGKEREGVAALMTKWGQTYYADSVKGRFTVSLDNAKNTVYLQMNSLKPEDTALYYCAAASYGANFPLKASDYSYWGQGTQVTVS | binds |
| Sb#53 (VHH) VHH: QVQLVESGGGSVQAGGSLRLSCAASGQISHIKYLGWFRQAPGKEREGVAALITRWGQTYYADSVKGRFTVSLDNAKNTVYLQMNSLKPEDTALYYCAAADYGASDPLWFIHYLYWGQGTQVTVS | binds |
| Sb#58 (VHH) VHH: QVQLVESGGGSVQAGGSLRLSCAASGNISTIEYLGWFRQAPGKEREGVAALYTWHGQTYYADSVKGRFTVSLDNAKNTVYLQMNSLKPEDTALYYCAAARWGRHMPLSATEYSYWGQGTQVTVS | binds |
| Sb#55 (VHH) VHH: QVQLVESGGGSVQAGGSLRLSCAASGKIWTIKYLGWFRQAPGKEREGVAALMTRWGYTYYADSVKGRFTVSLDNAKNTVYLQMNSLKPEDTALYYCAAANYGSNFPLAEEDYWYWGQGTQVTVS | binds |
| Sb#50 (VHH) VHH: QVQLVESGGGSVQAGGSLRLSCAASGYIDKIVYLGWFRQAPGKEREGVAALYTLSGHTYYADSVKGRFTVSLDNAKNTVYLQMNSLKPEDTALYYCAAATEGHAHALYRLHYYWGQGTQVTVS | binds |
| Sb#56 (VHH) VHH: QVQLVESGGGSVQAGGSLRLSCAASGNISQIHYLGWFRQAPGKEREGVAALNTDYGYTYYADSVKGRFTVSLDNAKNTVYLQMNSLKPEDTALYYCAAAYYFGDDIPLWWEAYSYWGQGTQVTVS | binds |
| Sb#51 (VHH) VHH: QVQLVESGGGLVQAGGSLRLSCAASGFPVYQGEMHWYRQAPGKEREWVAAIRSTGVQTWYADSVKGRFTISRDNAKNTVYLQMNSLKPEDTAVYYCRVWVGTHYFGQGTQVTVS | binds |
| Sb#67 (VHH) VHH: QVQLVESGGGSVQAGGSLRLSCAASGSISSITYLGWFRQAPGKEREGVAALVTYSGNTYYADSVKGRFTVSLDNAKNTVYLQMNSLKPEDTALYYCAAATWGHSWPLYNDEYWYWGQGSQVTVS | binds |

Reference: doi:10.1101/2020.04.16.045419 (bioRxiv, 2020)
